# Measurements as given in patent US20110158985A1 (published 2011).
# “And” between values parts separate entries of the source, which are not always exact repeats. Equal entries are not always repeated. Where two headings read alike, the source gives them in different places.
# T1: RSV F glycoprotein (NUF4) (respiratory syncytial virus)
# T1 chain 1: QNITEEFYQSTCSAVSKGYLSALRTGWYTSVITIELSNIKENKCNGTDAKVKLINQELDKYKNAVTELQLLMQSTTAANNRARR
# T1 chain 2: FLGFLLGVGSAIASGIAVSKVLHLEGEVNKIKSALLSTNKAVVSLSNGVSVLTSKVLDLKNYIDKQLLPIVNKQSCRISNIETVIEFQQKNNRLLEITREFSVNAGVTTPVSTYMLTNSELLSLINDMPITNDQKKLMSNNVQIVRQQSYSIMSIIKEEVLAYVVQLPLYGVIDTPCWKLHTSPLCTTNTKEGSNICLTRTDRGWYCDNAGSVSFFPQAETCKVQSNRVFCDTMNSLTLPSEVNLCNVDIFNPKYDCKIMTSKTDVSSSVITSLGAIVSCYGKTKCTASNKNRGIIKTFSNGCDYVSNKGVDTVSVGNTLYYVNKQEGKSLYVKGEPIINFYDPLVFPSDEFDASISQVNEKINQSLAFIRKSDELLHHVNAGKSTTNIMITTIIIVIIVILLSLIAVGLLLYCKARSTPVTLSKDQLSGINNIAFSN
# Columns and labels:
# [1] = molecular target: T2, F protein of RSV (Long strain) (RSV (Long strain), UniProt P12568 26-574); assay: cell-based or functional assay
# Target sequence in this assay (P12568 26-574): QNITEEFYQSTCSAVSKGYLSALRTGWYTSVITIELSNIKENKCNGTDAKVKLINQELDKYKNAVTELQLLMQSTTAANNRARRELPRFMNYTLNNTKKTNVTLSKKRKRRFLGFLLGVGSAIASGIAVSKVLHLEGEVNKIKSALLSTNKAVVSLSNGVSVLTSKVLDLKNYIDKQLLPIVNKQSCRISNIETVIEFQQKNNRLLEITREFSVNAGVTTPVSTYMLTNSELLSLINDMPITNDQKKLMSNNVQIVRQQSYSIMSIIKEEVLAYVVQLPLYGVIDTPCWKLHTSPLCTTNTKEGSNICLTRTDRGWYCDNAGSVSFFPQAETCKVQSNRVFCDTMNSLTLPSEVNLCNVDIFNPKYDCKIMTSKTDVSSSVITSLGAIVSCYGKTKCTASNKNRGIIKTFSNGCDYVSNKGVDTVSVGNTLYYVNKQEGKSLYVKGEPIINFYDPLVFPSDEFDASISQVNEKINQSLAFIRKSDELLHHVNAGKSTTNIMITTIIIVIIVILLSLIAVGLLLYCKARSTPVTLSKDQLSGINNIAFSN
# [2] = molecular target: T2, F protein of RSV (Long strain); assay: cell-based or functional assay; remark: listed apart in the source
# [3] = molecular target: T1, RSV F glycoprotein (NUF4); assay: SPR (BIAcore), mAb vs NUF4 (1:1)
# [4] = molecular target: T1, RSV F glycoprotein (NUF4); assay: SPR (BIAcore), mAb vs NUF4 (2:1)
# Bac-F = Bac-F (respiratory syncytial virus); assay: SPR (BIAcore), mAb vs Bac-F (1:1)
# Bac-F (respiratory syncytial virus), sequence (P03420 26-524): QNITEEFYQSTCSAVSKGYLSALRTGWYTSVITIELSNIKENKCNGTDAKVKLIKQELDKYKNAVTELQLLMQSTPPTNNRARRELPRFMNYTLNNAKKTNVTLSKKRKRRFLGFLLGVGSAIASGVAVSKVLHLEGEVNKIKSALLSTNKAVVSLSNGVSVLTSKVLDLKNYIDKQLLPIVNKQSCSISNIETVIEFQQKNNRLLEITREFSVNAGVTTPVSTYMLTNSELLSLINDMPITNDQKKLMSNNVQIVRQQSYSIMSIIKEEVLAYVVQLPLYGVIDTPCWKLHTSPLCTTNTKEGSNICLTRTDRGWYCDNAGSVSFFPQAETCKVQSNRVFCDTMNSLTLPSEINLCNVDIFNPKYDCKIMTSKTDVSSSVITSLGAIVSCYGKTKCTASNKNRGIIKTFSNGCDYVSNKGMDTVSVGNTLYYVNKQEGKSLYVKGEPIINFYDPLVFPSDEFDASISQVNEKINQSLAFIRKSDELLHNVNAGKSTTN
# [5] = molecular target: T3, recombinant C-terminally truncated RSV (A2 strain) F protein (RSV (A2 strain), UniProt P03420 26-524); assay: SPR (BIAcore), IgG over immobilised F
# T3 construct: extracellular domain; also called truncated F protein; extracellular domain of the F protein from RSV A2
# Target sequence in this assay (P03420 26-109, chain 1 of 2): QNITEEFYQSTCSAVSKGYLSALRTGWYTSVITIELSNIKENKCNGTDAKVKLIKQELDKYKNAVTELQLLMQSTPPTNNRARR
# Target sequence in this assay (P03420 137-524, chain 2 of 2): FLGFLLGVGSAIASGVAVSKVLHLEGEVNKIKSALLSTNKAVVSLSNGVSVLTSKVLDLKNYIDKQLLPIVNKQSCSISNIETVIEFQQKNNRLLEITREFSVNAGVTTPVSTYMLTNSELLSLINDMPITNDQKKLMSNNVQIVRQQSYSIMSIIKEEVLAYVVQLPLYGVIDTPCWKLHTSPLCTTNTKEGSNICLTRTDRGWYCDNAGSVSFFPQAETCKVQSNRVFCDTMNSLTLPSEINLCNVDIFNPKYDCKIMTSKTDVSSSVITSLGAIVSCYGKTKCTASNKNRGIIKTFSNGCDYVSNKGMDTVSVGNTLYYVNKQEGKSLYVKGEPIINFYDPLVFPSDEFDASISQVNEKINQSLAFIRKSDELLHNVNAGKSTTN
# [6] = molecular target: T1, RSV F glycoprotein (NUF4); assay: ITC, NUF4 titrated into antibody, 35 C
# Procedure: The binding thermodynamics of the antibodies were determined from ITC measurements using a Microcal, Inc. VP Titration Calorimeter. The VP titration calorimeter consists of a matched pair of sample and reference vessels (1.409 ml) enclosed in an adiabatic enclosure and a rotating stirrer-syringe for titrating ligand solutions into the sample vessel. The ITC measurements were performed at 25° C. and 35° C. The sample vessel contained the antibody in the phosphate buffer while the reference vessel contained just the buffer solution. The phosphate buffer solution was saline 67 mM PO₄ at pH 7.4 from HyClone, Inc. Five or ten μl aliquots of the 0.05 to 0.1 mM NUF4 solution were titrated 3 to 4 minutes apart into the antibody sample solution until the binding was saturated as evident by the lack of a heat exchange signal. […] This was attributed to a heat of dilution of the NUF4 titrant and was subtracted from the titrant heats obtained during the titration prior to analysis of the data.
# A non-linear, least square minimization software program from Microcal, Inc., Origin 5.0, was used to fit the incremental heat of the ith titration (ΔQ (i)) of the total heat, Qₜ, to the total titrant concentration, Xₜ, according to the following equations (I),
# [7] = molecular target: T2, F protein of RSV (Long strain); assay: cell-based or functional assay; remark: listed apart in the source
# [8] = molecular target: T3, recombinant C-terminally truncated RSV …; assay: SPR (BIAcore), Fab over immobilised F
# [9] = molecular target: T3, recombinant C-terminally truncated RSV …; assay: SPR (BIAcore), Fab over immobilised F; remark: listed apart in the source
# Target sequence in this assay (P03420 26-109, chain 1 of 2): as the sequence (P03420 26-109, chain 1 of 2) above
# Target sequence in this assay (P03420 137-524, chain 2 of 2): as the sequence (P03420 137-524, chain 2 of 2) above
# [10] = molecular target: T3, recombinant C-terminally truncated RSV …; assay: SPR (BIAcore), IgG over immobilised F; remark: listed apart in the source
# Target sequence in this assay (P03420 26-109, chain 1 of 2): as the sequence (P03420 26-109, chain 1 of 2) above
# Target sequence in this assay (P03420 137-524, chain 2 of 2): as the sequence (P03420 137-524, chain 2 of 2) above
# RSV F protein (purified) = RSV F protein (purified) (respiratory syncytial virus); assay: SPR (BIAcore), F protein immobilised
# [11] = molecular target: T3, recombinant C-terminally truncated RSV …; assay: SPR (BIAcore), Fab over immobilised F; remark: listed apart in the source
binder,measurement,setting,value
"A13c4 IgG (antibody, V domains shown) VH: QVTLRESGPALVKPTQTLTLTCTFSGFSLSTAGMSVGWIRQPPGKALEWLADIWWDGKKSYNPSLKDRLTISKDTSKNQVVLKVTNMDPADTATYYCARDMIFNFYFDVWGQGTTVTVSS VL: DIQMTQSPSTLSASVGDRVTITCSLSSRVGYMHWYQQKPGKAPKLLIYDTMYQSSGVPSRFSGSGSGTEFTLTISSLQPDDFATYYCFQGSGYPFTFGGGTKVEIKR",Mean IC50 (Control),[1],0.0375 µg/mL
same,Mean IC50 (Curve),[1],0.0376 µg/mL
same,"Microneutralization IC50, IgG",[2],0.0376 µg/ml and 0.25 nM
same,Kd,[3],750 pM
same,fold in parentheses (palivizumab = 1),[3],12 fold
same,koff,[3],0.000272 s⁻¹
same,kon,[3],365000 M⁻¹ s⁻¹
same,Kd,[4],700 pM
same,fold in parentheses (palivizumab = 1),[4],446 fold
same,koff,[4],0.000225 s⁻¹
same,kon,[4],320000 M⁻¹ s⁻¹
same,Kd,Bac-F,130 pM
same,fold in parentheses (palivizumab = 1),Bac-F,30 fold
same,Kd,[5],132 pM
same,koff,[5],3.96e-05 s⁻¹
same,kon,[5],300000 M⁻¹ s⁻¹
same,Ka,[6],1.07e+08 M⁻¹
same,Kd,[6],9000 pM
same,ΔHb,[6],16 kcal/mol
"S32A Fab (Fab, name in Kabat numbering, V domains shown) VH: QVTLRESGPALVKPTQTLTLTCTFSGFSLSTAGMSVGWIRQPPGKALEWLADIWWDDKKDYNPSLKSRLTISKDTSKNQVVLKVTNMDPADTATYYCARSMITNWYFDVWGQGTTVTVSS VL: DIQMTQSPSTLSASVGDRVTITCSASSSVGYMHWYQQKPGKAPKLLIYDTSKLASGVPSRFSGSGSGTEFTLTISSLQPDDFATYYCFQGSGYPFTFGGGTKVEIK","Microneutralization IC50, Fab",[7],4.85 µg/ml and 97 nM
same,fold improvement in affinity over 493L1FR Fab,[8],3 to 7 fold
same,Kd,[9],470 pM
same,koff,[9],9.3e-05 s⁻¹
same,kon,[9],196000 M⁻¹ s⁻¹
"A17d4(1) IgG (antibody, V domains shown) VH: QVTLRESGPALVKPTQTLTLTCTFSGFSLSTAGMSVGWIRQPPGKALEWLADIWWDGKKSYNPSLKDRLTISKDTSKNQVVLKVTNMDPADTATYYCARDMIFNFYFDVWGQGTTVTVSS VL: DIQMTQSPSTLSASVGDRVTITCLPSSRVGYMHWYQQKPGKAPKLLIYDTMYQSSGVPSRFSGSGSGTEFTLTISSLQPDDFATYYCFQGSGYPFTFGGGTKVEIKR",Mean IC50 (Control),[1],0.0354 µg/mL
same,Mean IC50 (Curve),[1],0.0342 µg/mL
same,"Microneutralization IC50, IgG",[2],0.0342 µg/ml and 0.23 nM
same,Kd,[3],730 pM
same,fold in parentheses (palivizumab = 1),[3],12 fold
same,koff,[3],0.000362 s⁻¹
same,kon,[3],499000 M⁻¹ s⁻¹
same,Kd,[4],1110 pM
same,fold in parentheses (palivizumab = 1),[4],281 fold
same,koff,[4],0.000292 s⁻¹
same,kon,[4],264000 M⁻¹ s⁻¹
same,Kd,Bac-F,90 pM
same,fold in parentheses (palivizumab = 1),Bac-F,43 fold
same,Kd,[5],89 pM
same,koff,[5],4.07e-05 s⁻¹
same,kon,[5],456000 M⁻¹ s⁻¹
same,Ka,[6],7.5e+07 M⁻¹
same,Kd,[6],13000 pM
same,ΔHb,[6],16.3 kcal/mol
"AFFY IgG (antibody, name in Kabat numbering, V domains shown) VH: QVTLRESGPALVKPTQTLTLTCTFSGFSLSTAGMSVGWIRQPPGKALEWLADIWWDDKKDYNPSLKSRLTISKDTSKNQVVLKVTNMDPADTATYYCARSMITNFYFDVWGQGTTVTVSS VL: DIQMTQSPSTLSASVGDRVTITCSASSSVGYMHWYQQKPGKAPKLLIYDTFKLASGVPSRFSGSGSGTEFTLTISSLQPDDFATYYCFQGSYYPFTFGGGTKVEIK","Microneutralization IC50, IgG",[7],0.407 µg/ml and 2.71 nM
same,koff,[10],≤ 5e-06 s⁻¹
same,kon,[10],144000 M⁻¹ s⁻¹
"W100F Fab (Fab, name in Kabat numbering, V domains shown) VH: QVTLRESGPALVKPTQTLTLTCTFSGFSLSTSGMSVGWIRQPPGKALEWLADIWWDDKKDYNPSLKSRLTISKDTSKNQVVLKVTNMDPADTATYYCARSMITNFYFDVWGQGTTVTVSS VL: DIQMTQSPSTLSASVGDRVTITCSASSSVGYMHWYQQKPGKAPKLLIYDTSKLASGVPSRFSGSGSGTEFTLTISSLQPDDFATYYCFQGSGYPFTFGGGTKVEIK","Microneutralization IC50, Fab",[7],2.6 µg/ml and 52 nM
same,fold improvement in koff (against palivizumab Fab),[8],8 fold
same,Kd,[9],510 pM
same,koff,[9],8.4e-05 s⁻¹
same,kon,[9],165000 M⁻¹ s⁻¹
"AFFG Fab (Fab, name in Kabat numbering, V domains shown) VH: QVTLRESGPALVKPTQTLTLTCTFSGFSLSTAGMSVGWIRQPPGKALEWLADIWWDDKKDYNPSLKSRLTISKDTSKNQVVLKVTNMDPADTATYYCARSMITNFYFDVWGQGTTVTVSS VL: DIQMTQSPSTLSASVGDRVTITCSASSSVGYMHWYQQKPGKAPKLLIYDTFKLASGVPSRFSGSGSGTEFTLTISSLQPDDFATYYCFQGSGYPFTFGGGTKVEIK","Microneutralization IC50, Fab",[7],0.249 µg/ml and 4.98 nM
same,fold higher affinity than palivizumab Fab,[8],> 117 fold
same,Kd,[9],≤ 38 pM
same,koff,[9],≤ 5e-06 s⁻¹
same,kon,[9],133000 M⁻¹ s⁻¹
"AFFY Fab (Fab, name in Kabat numbering, V domains shown) VH: QVTLRESGPALVKPTQTLTLTCTFSGFSLSTAGMSVGWIRQPPGKALEWLADIWWDDKKDYNPSLKSRLTISKDTSKNQVVLKVTNMDPADTATYYCARSMITNFYFDVWGQGTTVTVSS VL: DIQMTQSPSTLSASVGDRVTITCSASSSVGYMHWYQQKPGKAPKLLIYDTFKLASGVPSRFSGSGSGTEFTLTISSLQPDDFATYYCFQGSYYPFTFGGGTKVEIK","Microneutralization IC50, Fab",[7],0.0754 µg/ml and 1.51 nM
same,fold higher affinity than palivizumab Fab,[8],> 117 fold
same,Kd,[9],≤ 41 pM
same,koff,[9],≤ 5e-06 s⁻¹
same,kon,[9],122000 M⁻¹ s⁻¹
"G93F Fab (Fab, name in Kabat numbering, V domains shown) VH: QVTLRESGPALVKPTQTLTLTCTFSGFSLSTSGMSVGWIRQPPGKALEWLADIWWDDKKDYNPSLKSRLTISKDTSKNQVVLKVTNMDPADTATYYCARSMITNWYFDVWGQGTTVTVSS VL: DIQMTQSPSTLSASVGDRVTITCSASSSVGYMHWYQQKPGKAPKLLIYDTSKLASGVPSRFSGSGSGTEFTLTISSLQPDDFATYYCFQGSFYPFTFGGGTKVEIK","Microneutralization IC50, Fab",[7],8.84 µg/ml and 177 nM
same,fold improvement in affinity over 493L1FR Fab,[8],3 to 7 fold
same,Kd,[9],1070 pM
same,koff,[9],0.000174 s⁻¹
same,kon,[9],163000 M⁻¹ s⁻¹
"AFFG IgG (antibody, name in Kabat numbering, V domains shown) VH: QVTLRESGPALVKPTQTLTLTCTFSGFSLSTAGMSVGWIRQPPGKALEWLADIWWDDKKDYNPSLKSRLTISKDTSKNQVVLKVTNMDPADTATYYCARSMITNFYFDVWGQGTTVTVSS VL: DIQMTQSPSTLSASVGDRVTITCSASSSVGYMHWYQQKPGKAPKLLIYDTFKLASGVPSRFSGSGSGTEFTLTISSLQPDDFATYYCFQGSGYPFTFGGGTKVEIK","Microneutralization IC50, IgG",[7],0.453 µg/ml and 3.02 nM
same,koff,[10],≤ 5e-06 s⁻¹
same,kon,[10],147000 M⁻¹ s⁻¹
"AFFF(1) Fab (Fab, V domains shown, also called AHH(1)) VH: QVTLRESGPALVKPTQTLTLTCTFSGFSLSTAGMSVGWIRQPPGKALEWLADIWWDDKKDYNPSLKSRLTISKDTSKNQVVLKVTNMDPADTATYYCARSMITNFYFDVWGQGTTVTVSS VL: DIQMTQSPSTLSASVGDRVTITCSASSSVGYMHWYQQKPGKAPKLLIYDTFKLASGVPSRFSGSGSGTEFTLTISSLQPDDFATYYCFQGSFYPFTFGGGTKVEIK","Microneutralization IC50, Fab",[7],0.0715 µg/ml and 1.43 nM
same,"Microneutralization IC50, Fab",[2],0.0715 µg/ml and 1.43 nM
same,fold higher affinity than palivizumab Fab,[8],> 117 fold
same,koff,RSV F protein (purified),0.000245 s⁻¹ and 0.000446 s⁻¹ and 0.000268 s⁻¹
same,kon,RSV F protein (purified),212000 M⁻¹ s⁻¹ and 156000 M⁻¹ s⁻¹ and 186000 M⁻¹ s⁻¹
same,Kd,[9],≤ 37 pM
same,koff,[9],≤ 5e-06 s⁻¹
same,kon,[9],134000 M⁻¹ s⁻¹
same,Kd,[11],≤ 37 pM
same,koff,[11],≤ 5e-06 s⁻¹
same,kon,[11],134000 M⁻¹ s⁻¹
"AFSF Fab (Fab, name in Kabat numbering, V domains shown) VH: QVTLRESGPALVKPTQTLTLTCTFSGFSLSTAGMSVGWIRQPPGKALEWLADIWWDDKKDYNPSLKSRLTISKDTSKNQVVLKVTNMDPADTATYYCARSMITNFYFDVWGQGTTVTVSS VL: DIQMTQSPSTLSASVGDRVTITCSASSSVGYMHWYQQKPGKAPKLLIYDTSKLASGVPSRFSGSGSGTEFTLTISSLQPDDFATYYCFQGSFYPFTFGGGTKVEIK","Microneutralization IC50, Fab",[7],0.0908 µg/ml and 1.82 nM
same,fold higher affinity than palivizumab Fab,[8],> 117 fold
same,Kd,[9],≤ 44 pM
same,koff,[9],≤ 5e-06 s⁻¹
same,kon,[9],113000 M⁻¹ s⁻¹
"AFSF IgG (antibody, name in Kabat numbering, V domains shown) VH: QVTLRESGPALVKPTQTLTLTCTFSGFSLSTAGMSVGWIRQPPGKALEWLADIWWDDKKDYNPSLKSRLTISKDTSKNQVVLKVTNMDPADTATYYCARSMITNFYFDVWGQGTTVTVSS VL: DIQMTQSPSTLSASVGDRVTITCSASSSVGYMHWYQQKPGKAPKLLIYDTSKLASGVPSRFSGSGSGTEFTLTISSLQPDDFATYYCFQGSFYPFTFGGGTKVEIK","Microneutralization IC50, IgG",[7],0.521 µg/ml and 3.47 nM
same,koff,[10],≤ 5e-06 s⁻¹
same,kon,[10],147000 M⁻¹ s⁻¹
